Source: patent US20090292003A1

Target: short 17-residues peptide (cargo titrated against CADY-2)
Test: steady state Trp fluorescence quenching, fixed CADY (0.1 uM) titrated with cargo peptide in PBS, quadratic fit

B1: CADY-2 (Ac-…-Cya) (peptide)
peptide: GLWRALWRALWRSLWKLKWKV
HELM: PEPTIDE1{[ac].G.L.W.R.A.L.W.R.A.L.W.R.S.L.W.K.L.K.W.K.V.[SCCN[*:1]]}$$$$V2.0
SMILES: CC(=O)NCC(=O)N[C@@H](CC(C)C)C(=O)N[C@@H](Cc1c[nH]c2ccccc12)C(=O)N[C@@H](CCCNC(=N)N)C(=O)N[C@@H](C)C(=O)N[C@@H](CC(C)C)C(=O)N[C@@H](Cc1c[nH]c2ccccc12)C(=O)N[C@@H](CCCNC(=N)N)C(=O)N[C@@H](C)C(=O)N[C@@H](CC(C)C)C(=O)N[C@@H](Cc1c[nH]c2ccccc12)C(=O)N[C@@H](CCCNC(=N)N)C(=O)N[C@@H](CO)C(=O)N[C@@H](CC(C)C)C(=O)N[C@@H](Cc1c[nH]c2ccccc12)C(=O)N[C@@H](CCCCN)C(=O)N[C@@H](CC(C)C)C(=O)N[C@@H](CCCCN)C(=O)N[C@@H](Cc1c[nH]c2ccccc12)C(=O)N[C@@H](CCCCN)C(=O)N[C@H](C(=O)NCCS)C(C)C
  Kd: 19 nM
